# Assay results: the DeepSol protein solubility set
# Assay: soluble on expression in E. coli; label from the status in PepcDB or PDB records
row,Sequence,soluble on expression in E. coli
1,MKKWEKQTMKIAALGAMALTLAGCATAKSSSSQGNNPGKTIKIGVNMELSGSAAGYGEQQKQGIQLAVKKINKSGGIKVGGTKKKIQLVIRDNKTSNTTAASVAAQLVNNDKVVAVVGPATTSAGTAAIPNMTKAAVPSVSPSATDPDYTLQKSGKVQKYIFRACYQNNFQGATAATFVTKNLKAKRVAILTDNSSDYGTGLTKAFKKQYRGTVVSSQTFQEGDKDFNAILTALKHKKIDAIYAPGYYSEIGLIVKQARQAGIKAPIVGSDGMADAKLAQIAGKSNATNVYYTTPFSTKASATNKVASKFMSAYKAKYGSTAPTFSALAYDSVYMIKAAIEKEGSANSVKIADGLAKLKNFKGVTGTMTIDKQHNPEKTISIEQLTNGVVSKVYNVK,soluble
2,MKKWLLAAGLGLAMVTSAQAADKIAIVNMGNLFQQVAQKTGVSNTLENEFKGRAAELQKMETDLQSKMQRLQSMKAGSDRTKLEKDVMSQRQTFAQKAQAFEKDRARRSNEERNKLVTRIQTAVKKVANDQSIDLVVDANTVAYNSSDVKDITADVLKQVK,not soluble
3,MKLATLKNNTRDGQLVVVNRALDKAVVVSHIAATLQAALDNWSEISPKLAEVYQSLNNNEITDTLVFEQAACESPLPRAYQWADGSAYVNHVELVRKARNAEMPATFWTDPLMYQGGSDAFIGPRDDISIASEEYGIDFESEVAVITDDVPMGISVEQAANHIKLLMLVNDVSLRNLIPGELAKGFGFFASKPSSAFSPVAVTPDELGDAWDGKKLHLPLTTHLNETLFGQPNCGVDMTFDFPTIVAHAAKTRPLSTGCVIGSGTISNYDRSVGSSCLAEIRMLEIIADGKPTTPFMSFGDTVRIEMFDNEGASIFGSIDQKVVEYKAQ,not soluble
4,MKLAVYSTKQYDKKYLQQVNESFGFELEFFDFLLTEKTAKTANGCEAVCIFVNDDGSRPVLEELKKHGVKYIALRCAGFNNVDLDAAKELGLKVVRVPAYDPEAVAEHAIGMMMTLNRRIHRAYQRTRDANFSLEGLTGFTMYGKTAGVIGTGKIGVAMLRILKGFGMRLLAFDPYPSAAALELGVEYVDLPTLFSESDVISLHCPLTPENYHLLNEAAFEQMKNGVMIVNTSRGALIDSQAAIEALKNQKIGSLGMDVYENERDLFFEDKSNDVIQDDVFRRLSACHNVLFTGHQAFLTAEALTSISQTTLQNLSNLEKGETCPNELV,soluble
5,MKLFERIHQDTEIRQIYDAIGQMEDEEAGWAYHNWFHVTNVVAMTEMILKQLAVSEEYLEAAKIAALLHDVGALQGKAGHALRGKQFAEAYFRKQKICLPYQEEILSSIENHSNGFDSEELMTLALIISDKLDITTSRVAKAGYFVPGMRQFQFLKKIEIMLSEQEVCVSFTAEEELDLEELNAFYFMPKVFKAIAAFSGKIQRRPIVLLNNQEWPVPKQKNPSTVH,not soluble
6,MKLFERIHQDTEIRQIYDAIGQMEDEEAGWAYHNWFHVTNVVAMTEMILKQLAVSEEYLEAAKIAALLHDVGALQGKAGHALRGKQFAEAYFRKQKICLPYQEEILSSIENHSNGFDSEELMTLALIISDKLDITTSRVAKAGYFVPGMRQFQFLKKIEIMLSEQEVCVSFTAEEELDLEELNAFYFMPKVFKAIAAFSGKIQRRPIVLLNNQEWPVPKQKNPSTVHLEHHHHHH,soluble
7,MKLKIGIVCYPTVGGSGVVATELGKLLAERGHEIHFISSSMPFRLNKVYGNIYYHEVSVNQYSVFQYPPYDLALASKIAEVAKRERLDVLHAHYAVPHAVCAVLARQMVGELPIITTLHGTDITVLGYDPSLSDMIKFGIEQSDIVTAVSDALARQTYELLDVQATIHTVYNFVDERVYRRREAGHLRREYGIRDDERVVIHVSNFRKVKRVPDVVRAFAIVRRHVPAKLLLVGDGPEMTVVCRLVKELGLQDDVRFLGKQDKLEELYSISDVMMLLSEKESFGLVLLEAMACGVPCIGTAIGGIPEVIEDGKTGFLCPLGDVKEAARQAMALLTDCRLHAEMARQAVQTVERKFRSADIVGQYEQLYASLAARKVKR,not soluble
8,MKLKLVDVETNPHEEEVGTCEFCMSVEMVNEPVFVFKKDIGELVRVKAFIWSWGFYDEENIENIVDFAAYVNEQEFDEEQELDYSWLTNLIYEYEYGKDC,not soluble
9,MKLKSFGVFGNPIKHSKSPLIHNACFLTFQKELRFLGHYHPILLPLESHIKSEFLHLGLSGANVTLPFKERAFQVCDKIKGIALECGAVNTLVLENDELVGYNTDALGFYLSLKQKNYQNALILGAGGSAKALACELKKQGLQVSVLNRSSRGLDFFQRLGCDCFMEPPKSAFDLIINATSASLHNELPLNKEVLKGYFKEGKLAYDLAYGFLTPFLSLAKELKTPFQDGKDMLIYQAALSFEKFSASQIPYSKAFEVMRSVFLEHHHHHH,soluble
10,MKLLKDLLVDRKEFEDWKNNLTWARDGTLYLTTFPDISIGQPKYAKDINCNSKNLFHVKEFPLEFENKLDFELAQQNGLLNSQPVCYPRVCKPSPIDDWMAVLSNNGNVSVFKDNKMLTNLDSKGNLSSRTYHCFEWNPIESSIVVGNEDGELQFFSIRKNSENTPEFYFESSIRLSDAGSKDWVTHIVWYEDVLVAALSNNSVFSMTVSASSHQPVSRMIQNASRRKITDLKIVDYKVVLTCPGYVHKIDLKNYSISSLKTGSLENFHIIPLNHEKESTILLMSNKTSYKVLLEDELHVTADNIIAPYLEKKFKKWSTIWNEFNNYETTLVIHGISLSPDGYSIAIVYDMERVAFKYKIASEQSFNIMFAPLYHTWTISERAVGLAWYQTYQIYNQSLPKLPENFSMNKKLLNGNYPISLDFQSYLNALMKSEEMRIIMFLNMTIDKPSILSFLEALYEYAINKKSELTNSFDLACVLSIAAILKREAPIYNGTLLMKNSFLEETFNLESFTADPETVTSTTNNTWKRCGVTLLPILTTHVKICPVSKQRVIDIKRDDLNDYGWFTRGLLERFNEISVYCGTTLEVM,soluble
11,MKLNFNPVTKEEIHQLETALLVGTLFRKEVLEEIRNSAERLTWVDSLAVAAGALARAKAGMTASEIAEELGRTEATIREHVKGETKAGKLVNETYELLKEGKLSVEGLIGEGIKVVTTTTGSDEKLQEVKKELEEIKQKLESVIQKL,soluble
12,MKLNFSLYRYNPDVDNKPYMKDYILEVEEGSDMMVLDALILLKEQDPSIAFRRSCREGVCGSDGLNMNGKNGLACITPLSALKGDKIVIRPLPGLPVVRDLIVDMTQFYDNYAKVKPFLIADDALPPSRENLQSPEERAHLDGLYECIMCACCTTSCPSFWWNPDKFIGPAGLLAAYRWLIDSRDTATDERLSNLDDAFSVFRCHGIMNCVSVCPKGLNPTKAIGHIKSMLINRSV,not soluble
13,MKLSPSVIALSVLLSSHTLANTAGQVETCQQKAQDIQRQIDEAHKHGNQNRINGLEKALDGVKNHCTDAGLAEKRQEAIAEKRKDVAERQQELSESRQKRDDAEKILKRERKLAEAEQELRAAESGASQLEHHHHHH,soluble
14,MKLTGFLKQNVRVRFAPSPTGHLHIGGLRTAFFNYLFAKKYGGDFILRIEDTDRTRFVDDAQDQIYSSLNFYNLLPDEGPREGGKFGPYEQSKRLEIYRNAAYRLIDSGHAYRCFCSENRLDLLRKTAEKRGEIPKYDRKCANLSSRDAVKMEQNGEKFVIRFKLDKQNVQFHDEVFGSVNQFIDESDPVLLKSDGFPTYHLANVIDDRKMEISHVIRGMEWLSSTGKHTILYKAFNWTPPKFVHLSLIMRSATKKLSKRDKDAFVSYYSEQLGALPEAVLNLMIRNGAGIRNFDAEHFYSLDEMIEQFDLSLLGRRNLLLDSDVLQKYSRMAFQKSDFKELYPRIIDILNKKSNYSTSREDIQKIVTFLKAKEENFGFLSSLSTEFSWFFTRPQSSQLLKESHPNVDLRNILNSLLEIEVFNSESLEYLAKNHQLNLAKAMGIVRISLIGSKKGPPISELVEFFGMTECHRRIRIMQELL,not soluble
15,MKLTPNFYRDRVCLNVLAGSKDNAREIYAAAEGHVLVGVLSKNYPDVASAVADMREYAALIDNALSVGLGAGDPNQSAMVSEISRQVQPQHVNQVFTGVGTSRALLGQNETVVNGLVSPTGTPGLVKISTGPLSSRAPDGIVPIETAIALLKDMGGSSVKYFPMGGLTCRDEYKAVAEPAPAMISGWNRRAVSIWKTSPRFCTSPLMQV,not soluble
16,MKLVTGFARIRKPSRPIEFGRWPNRSMSVRVPGAMPLASMNLAVGQSVRIGQRPNSSPSSLPNISFAKIRRWPSRRWLRHQGLHGPIDFGRWPNETMSIRVPGAMPLASMKLAVGQSTALAKGQTQHSQRATPLVLQRTTHTLANGQMQPIITPKRIVHQTRSHIVGGSRDIRLGMSLPGDAPAGSRCRQRRFHDALGRPKRSRTLVANRTCPGWDVASSQTWTSPAWPSPQSPSPDGFGSCQTNKDLTSRGCGG,not soluble
17,MKMDYILSDFAQKQGYAVESYEIVDSTNYIAQQKAHAGHHGYLWVVAKEQSQGRARRGRTWSSPKGNLYSSLLLVEDIVHQTAAQLGFVAGVSVVETIKQFIKDEKQTSDIVSLKWPNDILLRGAKSSGILLEIFKLPSQQYALVIGIGINVKYHYEDAPYPTSSLKNIGLDIETEQLFTVLTEYFSKNYLLWKQLGGCDRIREKWLLYSAHSGQYVKIVNDEKIIEGIFDGLDNDFNCVIKQKNGQQAVITAGDVHFGSSASVNAGCY,not soluble
18,MKNFVRTTLLAATLAGVSFGAFATAVPNPPLPAQDPIVQHLKLTNDQITRIKKLHQQLETDVSQISMKGIKDGALIEVIKSGKWDDAAVKQQLAAFSNIEQQARYYRVKYYFDLSKVLTPEQRQQVQQDLAQALELEHHHHHH,soluble
19,MKNKPLGLWLMSLLVLVGCKANQDDLTSYVAQVEREARKEVTKLKPILEFEATPYQQHKGREPFVLPKEALVQNQPLAKADCWQPVPRAKNGPLERYPLHQLRLKGVMSSGGSISALVQTPAGSVVKVKAGQYVGINNGKVTRVDDNYLLINETLPDGLGCWNQRNVKLALK,not soluble
20,MKNNADFAYQAVYRYLVQLVDQGQGESALKMPSLRHLAQRLRVSISTVQSAYSLLEKEGRIYSVAKSGYYSAPRSAAIEVRARFDSDGDLLQMHHYYARRSGMSLLSSDAPTLLQAQESPLLAMEHELVRNYPRPRQADFQPFGELQLRIALAARYTRGAEHCWHADNVHVAPDVHGAFKAVIETLGLRGGAVLVESPCAWGLLRLLRSFDIRVIELPLDETGSLDPIQLERLLLENNVGLVVLPSMFNSVRGSVRPLCNSRAVAKVLDRHQVWVLENDSHGALQFAADQTCLRHLIDPQRLIIIGTFEKCLGPEAPYGYLLCKNLDARWQAYFLLRAFELPPTRQRAIARLCSSGRLDKHLAQLREALAGHLQLMMQHLNEHTDGLLRYEVPEGGCGIWARSVYPVDMRQVFNRLLAKRIVITPGELFSLESLYGQHLWISYAIDWSRDPGELFSALAQALHLARQP,not soluble
